Results on eight sequences are retold here after the DeepSol protein solubility set.

The nature of this data set: soluble on expression in E. coli; label from the status in PepcDB or PDB records.
As for “MSRISVENVKHVAHLARLAITDQEAEKFQKQLDAIVTFAEQLNELDTTDVKPTTHVLTMKNVMREDVPEKGLPVEEVLKNAPDHKDNQIRVPAVLE”, the “soluble on expression in E. coli” value was “not soluble”. Consider “MSRLGYVMTKASAKNFKVYINGSARGYRNIIINGAKSWNPSPYLNTVTMGNDVKPNFTVSSSNTNKGSVLAVCNTTYYKSNKLIVKNEITLYKGFRSLSNNHKIETVAHEFGHGFGLGHVKTRNAIMLDKGFINKTKPQKLEHHHHHH”, for which the “soluble on expression in E. coli” value is “not soluble”. In the case of “MSRLLLVWDAPNLDMGLGALLGGRPTTAHRPRFDAVGRWLLAKAGELAHTTGSKVESEATVFANVVPGSADSIRSWVEALRNVGFAVFAKPKLRDDTDVDPDMLAHIRKRFEEGDLAGVIVASADGRNFQETLDELASAGVAITVIGFHEHATWALADDRITFVDLEEIPGVFREPLPRVSLDNLPEEGAWLKPIRPLSALLSKSK” it was “not soluble”; in that of “MSRQACKKSFSCGSQGFSGHSAVVSGSSRSSCVARSGAASGGACGFRSGAGSLGSHSLYSLGGSKSISISVAAGGSRAGGFSGGRSSCGSGFGSGYGGSLGGSRGMGAGFGGPSGFGGAGGFGRPGSFGPGSCPGGIQEVTINQSLLQPLNVEIDPQIGQVKAQEREQIKTLNNKFASFIDKVRFLEQQNKVLETKWELLQQQTIRSGSGPQNLEPFFESCISCLRKQLDSLLGAKGSLEGELKSMQDLVEDFKKKYEEEINRRTAAENEFVGLKKDVDGAFMNKVELQAKVDSLTDEINFLRTLYDMELSQIQSHVSDTSVVLSMDNNRCLDLDSIIAEVKAQYEDIAQKSKAEAEALYQTKLGELQTTAGRHGDDLRSTKSEIMDLNRMIQRLRAEIENVKKQNTNMQTSIAEAEQRGERALKDADTKFQYLQVALQKAKEDMARLLKEYQELMNVKLALDVEIATYRKLLEGEECRLSGEFQNAVSISVVSNVTSTSSSGSFRGTGGSNYGGDSSGRSGGSSSSSSRGSSSRGSSGSRLGSGGSISVSQQRMGFNSGGSQTSVGSSYKSGRGGSSSVQFSQTTSSSQQRSK”, “soluble”. In the case of “MSRQPKPARLAGGALALGLLLGLPNPVEAAQDNGMEHSAMDHGAMPGMDHGAASPAPAQPMEHRGMDHGRMPGMSHAARQPPAQAASSQSRTPIPVPTEADRRAAFPPLEGHKVHDSALNSFFLLDQLEYQDADDGSALAWDASGWIGGDINRLWLRSEGERLDGKTEDAEVQALFGHAIGPWWDLVAGVRQDFKPGSPQTWAAFGVQGLALYDFEAEVTAFLGENGQSALRLEGEYDILLTNRLILQPSAEVNLYGRNDPARGIGSGLADSELGLRLRYEIRREFAPYIGVTWNRSYGNSADLARAEGEDDDEARFVAGIRMWFLEHHHHHH” it was “not soluble”; in that of “MSRRLFGRLREALNRASEHIARGIVDTLAYKELKPEDLEPVLDDILIDLVESDVALEAAESIVAGVKEGLTGYRVRRGEPVEKVVRDALRKALLTLLDPGPRPDLAAEARRRCGGRPLVILFLGVNGTGKTTTIAKVAYMLRKAGVTPVIAAADTFRAGAQEQLAVHAEKLGVPIVRGRYGGDPASVAYDAVKHAESRGFCAVLVDTAGRMHVDSNLVEELRKIVRVVKPDYKILVVDSLTGNDAVEQARLFDEAVGVDGVIVTKVDADPKGGTLVSVAHAIRKPILYIGTGQRYEDLRPFDPQKIVDQLLG”, “soluble”; in that of “MSRSDAGRPAPTGADADRRTMVLESAMATFARFGYRKTSMEEVARAAHISRPGLYFLFSSKESLFRAAVTQALHRDITAVERALADGDRPLPERLVEAFDHWAGRYVGPLTRDVATVIEANPGILGEVVEVLPRRFEELVTDAITVATGREGAVRIAQTMISASTGLKHQVGSRESYLERLTVAVGLLLR”, “not soluble”. In the case of “MSRVCVFFLLSFIFSVHADPKVVNLFRVTSLGSLTISVESGGKIFLASGDDNQYLKNIQLTTGTTTITLDKLNDLNDDGSPKFITAAGSVILQTSNNDTTTSRLSGYIYVTTYLQAQDPTFSVYVLKTTQSISKMGMKSTVVVLNTVLRQELIDYDMPRAISYVTKIDHSPNTNLYFQWDIPASNWNDVTNNTFFRNPIELKNGTGPHFKVFFDNIEPLQIGLNYWYITSMGPFNLFLENKYVSDHSYTTTAVNTTGIIVGKSFYADRVVNFQSDTSRSSASGFFDSAYITDDLTIKLQFVGASFSNTLRKESETQNYAWSPAAPVNLTVTSTSTLPGTFYIQYFAFAGDLQPLTSTVATSLMLQTSTTTVASTAVTTSRIITTTKGSSSNCGVHILISLLLSMVFC” it was “not soluble”.
